Assay results published in PMC2120686.
“And” between values parts separate entries of the source, which are not always exact repeats. Equal values may be shown once. One block for each substance: values may come before it.

What was measured:
titin (rabbit) [1] = test: light scattering
dansylated LMM (rabbit) = test: fluorescence polarisation
[2] = molecular target: light meromyosin (LMM) (rabbit); test: electron microscopy
[3] = molecular target: J peptide (15-kD CNBr fragment of LMM) (rabbit); test: ELISA
[4] = molecular target: K peptide (30-kD CNBr fragment of LMM) (rabbit); test: ELISA
[5] = molecular target: light meromyosin (LMM) (rabbit); test: ELISA
titin (rabbit) [6] = test: ELISA

stoichiometry N (titin (rabbit) [1]): 25 to 50
Substance: light meromyosin (LMM) (domain or fragment)

Substance: titin (natural protein)
Kd (dansylated LMM (rabbit)): 15 nM
molecular-binding constant (dansylated LMM (rabbit)): 400 nM
percent of molecules closely associated [2]: 20%
Kd [3]: 30 nM and 20 nM
fold lower affinity than the 15-kD peptide [4]: 100 fold
Kd [5]: 12 nM

maximum inhibition of titin binding to LMM (titin (rabbit) [6]): 60%
Substance: J peptide (15-kD CNBr fragment of LMM) (domain or fragment)
